This test deals with FMC63-scFv (VL - Whitlow linker - VH, C-terminal His8 tag) (mouse). The test is described as follows: SEC-MALS; 25 µg injected, Superdex 200 Increase 10/300 GL, PBS with additional 200 mM NaCl, pH 7.4, 25 °C.

In turn, “FMC63-scFv (VL - Whitlow linker - VH, C-terminal His8 tag)” came in with a percent dimers of 20% and a stoichiometry N of 2.

Usually stoichiometry N stands for a count of units in the complex or per binding partner.

These data come from publication PMC10754921.
